Among the data in US20250312499A1, “KISSPEPTIN RECEPTOR (KISS1R) TARGETED THERAPEUTICS AND USES THEREOF” (priority 2024, published 2025) are Ki values, retold here.

Numbered stars: 1 amine (or outer) side, 2 acyl side, 3 side chain; on linkers, the order of the positions; unused ones are H or OH. Square brackets hold non-standard residues; d marks the D form. * marks the point of attachment. X2 = 4‑amino‑1‑((3-fluoro-4-methylbenzyl)glycyl)piperidine‑4‑carboxylic acid, Cc1ccc(CN(CC(=O)N2CCC(N[*:1])(C(=O)[*:2])CC2)[*:3])cc1F; X10 = 3‑(2-(2-(3-(4-iodophenyl)propanamido)ethoxy)ethoxy)propanoyl, O=C(CCc1ccc(I)cc1)NCCOCCOCCC(=O)*; X6 = 3‑(2-(2-(3-(p-tolyl)propanamido)ethoxy)ethoxy)propanoyl, Cc1ccc(CCC(=O)NCCOCCOCCC(=O)*)cc1; DOTA = O=C(O)CN1CCN(CC(=O)O)CCN(CC(=O)*)CCN(CC(=O)O)CC1; Api(1-amidino) = N=C(N)N1CCC(N)(C(=O)O)CC1; d(γGlu) = O=C(O)[C@@H](CCC(=O)[*:2])N[*:1]; Phe(4-CN) = N#Cc1ccc(C[C@H](N)C(=O)O)cc1; d2Nal = N[C@H](Cc1ccc2ccccc2c1)C(=O)O; Palmitoyl = CCCCCCCCCCCCCCCC(=O)*; 4Pal = N[C@@H](Cc1ccncc1)C(=O)O; d4Pal = N[C@H](Cc1ccncc1)C(=O)O; Cha = N[C@@H](CC1CCCCC1)C(=O)O; 4Amb = NCc1ccc(C(=O)O)cc1; Ahx = NCCCCCC(=O)O; azaGly = NNC(=O)O

The target in this experiment is human kisspeptin receptor (KISS1R) (human), Q969F8. Nature of the experiment: radioligand competition, hKISS1R membranes; legend: A is <10 nM. A general note: Loss of bound radioactivity is the signal in a displacement assay; it reports binding, not function.
Chain of human kisspeptin receptor (KISS1R) (human), Q969F8 (Q969F8 whole entry): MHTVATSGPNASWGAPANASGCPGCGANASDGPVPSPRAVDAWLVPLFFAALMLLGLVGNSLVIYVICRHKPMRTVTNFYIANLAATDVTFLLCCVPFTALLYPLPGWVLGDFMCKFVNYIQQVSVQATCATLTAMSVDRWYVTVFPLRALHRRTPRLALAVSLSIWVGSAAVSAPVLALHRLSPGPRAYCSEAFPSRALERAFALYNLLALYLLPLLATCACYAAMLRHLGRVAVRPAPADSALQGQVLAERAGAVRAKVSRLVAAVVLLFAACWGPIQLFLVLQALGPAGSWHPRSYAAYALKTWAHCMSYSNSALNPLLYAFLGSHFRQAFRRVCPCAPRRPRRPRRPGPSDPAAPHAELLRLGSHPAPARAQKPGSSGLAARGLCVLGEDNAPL

B1: Compound 322 (peptide)
peptide: X6-[dY]K(DOTA)NTF[azaGly]L[Api(1-amidino)]F-NH2
SMILES: Cc1ccc(CCC(=O)NCCOCCOCCC(=O)N[C@H](Cc2ccc(O)cc2)C(=O)N[C@@H](CCCCNC(=O)CN2CCN(CC(=O)O)CCN(CC(=O)O)CCN(CC(=O)O)CC2)C(=O)N[C@@H](CC(N)=O)C(=O)N[C@H](C(=O)N[C@@H](Cc2ccccc2)C(=O)NNC(=O)N[C@@H](CC(C)C)C(=O)NC2(C(=O)N[C@@H](Cc3ccccc3)C(N)=O)CCN(C(=N)N)CC2)[C@@H](C)O)cc1
As for B1, the Ki (as a rule, the dissociation constant of the complex between target and ligand, obtained from inhibition or displacement) is less than 10 nM.

B2: Compound 328 (peptide)
peptide: Palmitoyl-[dY]K(DOTA)NTF[azaGly]L[Api(1-amidino)]W-NH2
SMILES: CCCCCCCCCCCCCCCC(=O)N[C@H](Cc1ccc(O)cc1)C(=O)N[C@@H](CCCCNC(=O)CN1CCN(CC(=O)O)CCN(CC(=O)O)CCN(CC(=O)O)CC1)C(=O)N[C@@H](CC(N)=O)C(=O)N[C@H](C(=O)N[C@@H](Cc1ccccc1)C(=O)NNC(=O)N[C@@H](CC(C)C)C(=O)NC1(C(=O)N[C@@H](Cc2c[nH]c3ccccc23)C(N)=O)CCN(C(=N)N)CC1)[C@@H](C)O
Turning to B2, the Ki was less than 10 nM.

B3: Compound 327 (peptide)
peptide: X10-[dY]K(DOTA)NT[Cha][azaGly]L[Api(1-amidino)]W-NH2
SMILES: CC(C)C[C@H](NC(=O)NNC(=O)[C@H](CC1CCCCC1)NC(=O)[C@@H](NC(=O)[C@H](CC(N)=O)NC(=O)[C@H](CCCCNC(=O)CN1CCN(CC(=O)O)CCN(CC(=O)O)CCN(CC(=O)O)CC1)NC(=O)[C@@H](Cc1ccc(O)cc1)NC(=O)CCOCCOCCNC(=O)CCc1ccc(I)cc1)[C@@H](C)O)C(=O)NC1(C(=O)N[C@@H](Cc2c[nH]c3ccccc23)C(N)=O)CCN(C(=N)N)CC1
In turn, B3 displayed a Ki of less than 10 nM.

B4: Compound 302 (peptide)
peptide: {DOTA}-[d2Nal]NTF[azaGly]L[Api(1-amidino)]F-NH2
SMILES: CC(C)C[C@H](NC(=O)NNC(=O)[C@H](Cc1ccccc1)NC(=O)[C@@H](NC(=O)[C@H](CC(N)=O)NC(=O)[C@@H](Cc1ccc2ccccc2c1)NC(=O)CN1CCN(CC(=O)O)CCN(CC(=O)O)CCN(CC(=O)O)CC1)[C@@H](C)O)C(=O)NC1(C(=O)N[C@@H](Cc2ccccc2)C(N)=O)CCN(C(=N)N)CC1
As to B4, the Ki is less than 10 nM.

B5: Compound 323 (peptide)
peptide: X10-[dY]K(DOTA)NTF[azaGly]L[Api(1-amidino)]F-NH2
SMILES: CC(C)C[C@H](NC(=O)NNC(=O)[C@H](Cc1ccccc1)NC(=O)[C@@H](NC(=O)[C@H](CC(N)=O)NC(=O)[C@H](CCCCNC(=O)CN1CCN(CC(=O)O)CCN(CC(=O)O)CCN(CC(=O)O)CC1)NC(=O)[C@@H](Cc1ccc(O)cc1)NC(=O)CCOCCOCCNC(=O)CCc1ccc(I)cc1)[C@@H](C)O)C(=O)NC1(C(=O)N[C@@H](Cc2ccccc2)C(N)=O)CCN(C(=N)N)CC1
Regarding B5, the Ki was less than 10 nM.

B6: Compound 293 (peptide)
peptide: {DOTA-Ahx}-[dY][dW]NTF[azaGly]L[Apc(OMe)][4Pal]-NH2
The molecule B6 gave a Ki of less than 10 nM.

B7: Compound 292 (peptide)
peptide: {DOTA-Ahx}-[d2Nal]NTF[azaGly]L[X2][4Pal]-NH2
SMILES: Cc1ccc(CNCC(=O)N2CCC(NC(=O)[C@H](CC(C)C)NC(=O)NNC(=O)[C@H](Cc3ccccc3)NC(=O)[C@@H](NC(=O)[C@H](CC(N)=O)NC(=O)[C@@H](Cc3ccc4ccccc4c3)NC(=O)CCCCCNC(=O)CN3CCN(CC(=O)O)CCN(CC(=O)O)CCN(CC(=O)O)CC3)[C@@H](C)O)(C(=O)N[C@@H](Cc3ccncc3)C(N)=O)CC2)cc1F
B7 showed a Ki of less than 10 nM.

B8: Compound 305 (peptide)
peptide: {DOTA}-GY[Ahx]F[azaGly]L[X2]W-NH2
SMILES: Cc1ccc(CNCC(=O)N2CCC(NC(=O)[C@H](CC(C)C)NC(=O)NNC(=O)[C@H](Cc3ccccc3)NC(=O)CCCCCNC(=O)[C@H](Cc3ccc(O)cc3)NC(=O)CNC(=O)CN3CCN(CC(=O)O)CCN(CC(=O)O)CCN(CC(=O)O)CC3)(C(=O)N[C@@H](Cc3c[nH]c4ccccc34)C(N)=O)CC2)cc1F
With B8, the Ki is less than 10 nM.

B9: Compound 325 (peptide)
peptide: X10-[dY]K(DOTA)NTF[azaGly]L[Api(1-amidino)][Phe(4-CN)]-NH2
SMILES: CC(C)C[C@H](NC(=O)NNC(=O)[C@H](Cc1ccccc1)NC(=O)[C@@H](NC(=O)[C@H](CC(N)=O)NC(=O)[C@H](CCCCNC(=O)CN1CCN(CC(=O)O)CCN(CC(=O)O)CCN(CC(=O)O)CC1)NC(=O)[C@@H](Cc1ccc(O)cc1)NC(=O)CCOCCOCCNC(=O)CCc1ccc(I)cc1)[C@@H](C)O)C(=O)NC1(C(=O)N[C@@H](Cc2ccc(C#N)cc2)C(N)=O)CCN(C(=N)N)CC1
In the case of B9, the Ki was less than 10 nM.

B10: Compound 1 (peptide)
peptide: {DOTA-Ahx}-[dY][dW]NTF[azaGly]L[X2]W-NH2
SMILES: Cc1ccc(CNCC(=O)N2CCC(NC(=O)[C@H](CC(C)C)NC(=O)NNC(=O)[C@H](Cc3ccccc3)NC(=O)[C@@H](NC(=O)[C@H](CC(N)=O)NC(=O)[C@@H](Cc3c[nH]c4ccccc34)NC(=O)[C@@H](Cc3ccc(O)cc3)NC(=O)CCCCCNC(=O)CN3CCN(CC(=O)O)CCN(CC(=O)O)CCN(CC(=O)O)CC3)[C@@H](C)O)(C(=O)N[C@@H](Cc3c[nH]c4ccccc34)C(N)=O)CC2)cc1F
B10 registered a Ki of less than 10 nM.

B11: Compound 290 (peptide)
peptide: {DOTA-Ahx}-[dW]NTF[azaGly]L[X2][4Pal]-NH2
SMILES: Cc1ccc(CNCC(=O)N2CCC(NC(=O)[C@H](CC(C)C)NC(=O)NNC(=O)[C@H](Cc3ccccc3)NC(=O)[C@@H](NC(=O)[C@H](CC(N)=O)NC(=O)[C@@H](Cc3c[nH]c4ccccc34)NC(=O)CCCCCNC(=O)CN3CCN(CC(=O)O)CCN(CC(=O)O)CCN(CC(=O)O)CC3)[C@@H](C)O)(C(=O)N[C@@H](Cc3ccncc3)C(N)=O)CC2)cc1F
With B11, the Ki is less than 10 nM.

B12: Compound 272 (peptide)
peptide: {DOTA-4Amb}-NTF[azaGly]L[Api(1-amidino)][4Pal]-NH2
SMILES: CC(C)C[C@H](NC(=O)NNC(=O)[C@H](Cc1ccccc1)NC(=O)[C@@H](NC(=O)[C@H](CC(N)=O)NC(=O)c1ccc(CNC(=O)CN2CCN(CC(=O)O)CCN(CC(=O)O)CCN(CC(=O)O)CC2)cc1)[C@@H](C)O)C(=O)NC1(C(=O)N[C@@H](Cc2ccncc2)C(N)=O)CCN(C(=N)N)CC1
Regarding B12, the Ki is less than 10 nM.

B13: Compound 321 (peptide)
peptide: {3‑(4-iodophenyl)propanoyl}-[dY]K(DOTA)NTF[azaGly]L[Api(1-amidino)]W-NH2
As for B13, the Ki is less than 10 nM.

B14: Compound 326 (peptide)
peptide: X6-[dY]K(DOTA)NT[Cha][azaGly]L[Api(1-amidino)]W-NH2
SMILES: Cc1ccc(CCC(=O)NCCOCCOCCC(=O)N[C@H](Cc2ccc(O)cc2)C(=O)N[C@@H](CCCCNC(=O)CN2CCN(CC(=O)O)CCN(CC(=O)O)CCN(CC(=O)O)CC2)C(=O)N[C@@H](CC(N)=O)C(=O)N[C@H](C(=O)N[C@@H](CC2CCCCC2)C(=O)NNC(=O)N[C@@H](CC(C)C)C(=O)NC2(C(=O)N[C@@H](Cc3c[nH]c4ccccc34)C(N)=O)CCN(C(=N)N)CC2)[C@@H](C)O)cc1
B14: the Ki is less than 10 nM.

B15: Compound 295 (peptide)
peptide: {DOTA-Ahx}-[d4Pal]NTF[azaGly]L[X2][4Pal]-NH2
SMILES: Cc1ccc(CNCC(=O)N2CCC(NC(=O)[C@H](CC(C)C)NC(=O)NNC(=O)[C@H](Cc3ccccc3)NC(=O)[C@@H](NC(=O)[C@H](CC(N)=O)NC(=O)[C@@H](Cc3ccncc3)NC(=O)CCCCCNC(=O)CN3CCN(CC(=O)O)CCN(CC(=O)O)CCN(CC(=O)O)CC3)[C@@H](C)O)(C(=O)N[C@@H](Cc3ccncc3)C(N)=O)CC2)cc1F
In turn, B15 showed a Ki of less than 10 nM.

B16: Compound 320 (peptide)
peptide: {3‑(4-iodophenyl)propanoyl}-[d(γGlu)][dY]K(DOTA)NTF[azaGly]L[Api(1-amidino)]W-NH2
With B16, the Ki is less than 10 nM.

B17: Compound 324 (peptide)
peptide: X10-[dY]K(DOTA)NTF[azaGly]L[Api(1-amidino)]Y-NH2
SMILES: CC(C)C[C@H](NC(=O)NNC(=O)[C@H](Cc1ccccc1)NC(=O)[C@@H](NC(=O)[C@H](CC(N)=O)NC(=O)[C@H](CCCCNC(=O)CN1CCN(CC(=O)O)CCN(CC(=O)O)CCN(CC(=O)O)CC1)NC(=O)[C@@H](Cc1ccc(O)cc1)NC(=O)CCOCCOCCNC(=O)CCc1ccc(I)cc1)[C@@H](C)O)C(=O)NC1(C(=O)N[C@@H](Cc2ccc(O)cc2)C(N)=O)CCN(C(=N)N)CC1
Molecule B17 showed a Ki of less than 10 nM.

B18: Compound 270 (peptide)
peptide: {DOTA-Ahx-4Amb}-[dY][dW]NTF[azaGly]L[Api(1-amidino)]W-NH2
SMILES: CC(C)C[C@H](NC(=O)NNC(=O)[C@H](Cc1ccccc1)NC(=O)[C@@H](NC(=O)[C@H](CC(N)=O)NC(=O)[C@@H](Cc1c[nH]c2ccccc12)NC(=O)[C@@H](Cc1ccc(O)cc1)NC(=O)c1ccc(CNC(=O)CCCCCNC(=O)CN2CCN(CC(=O)O)CCN(CC(=O)O)CCN(CC(=O)O)CC2)cc1)[C@@H](C)O)C(=O)NC1(C(=O)N[C@@H](Cc2c[nH]c3ccccc23)C(N)=O)CCN(C(=N)N)CC1
On to B18, for which the Ki was less than 10 nM.

B19: Compound 291 (peptide)
peptide: {DOTA-Ahx}-[dY]NTF[azaGly]L[X2][4Pal]-NH2
SMILES: Cc1ccc(CNCC(=O)N2CCC(NC(=O)[C@H](CC(C)C)NC(=O)NNC(=O)[C@H](Cc3ccccc3)NC(=O)[C@@H](NC(=O)[C@H](CC(N)=O)NC(=O)[C@@H](Cc3ccc(O)cc3)NC(=O)CCCCCNC(=O)CN3CCN(CC(=O)O)CCN(CC(=O)O)CCN(CC(=O)O)CC3)[C@@H](C)O)(C(=O)N[C@@H](Cc3ccncc3)C(N)=O)CC2)cc1F
Regarding B19, the Ki is less than 10 nM.
